Reference: publication PMC4237329, “Early Chordate Origin of the Vertebrate Integrin αI Domains” (PLoS ONE, 2014)
Read-outs that look alike come from different tables or passages of the source. One block for each molecule: values may come before it.

Biological target: T1, rat tail collagen I (rat, UniProt P02454 152-1207; P02466 86-1125)
T1 construct: collagen α1(I) chain, rat; collagen α2(I) chain, rat; also called rat collagen I; source: bought: Sigma Aldrich (rat tail collagen I)
Test: solid-phase binding assay (Europium-labelled anti-GST antibody, time-resolved fluorescence); 96-well plates coated with rat collagen I; GST-αI domain at various concentrations, one hour at RT, PBS + 2 mM MgCl2; apparent affinity constants from a hyperbolic fit (Hill's equation with h = 1)

T1 sequence (P02454 152-1207, chain 1 of 2): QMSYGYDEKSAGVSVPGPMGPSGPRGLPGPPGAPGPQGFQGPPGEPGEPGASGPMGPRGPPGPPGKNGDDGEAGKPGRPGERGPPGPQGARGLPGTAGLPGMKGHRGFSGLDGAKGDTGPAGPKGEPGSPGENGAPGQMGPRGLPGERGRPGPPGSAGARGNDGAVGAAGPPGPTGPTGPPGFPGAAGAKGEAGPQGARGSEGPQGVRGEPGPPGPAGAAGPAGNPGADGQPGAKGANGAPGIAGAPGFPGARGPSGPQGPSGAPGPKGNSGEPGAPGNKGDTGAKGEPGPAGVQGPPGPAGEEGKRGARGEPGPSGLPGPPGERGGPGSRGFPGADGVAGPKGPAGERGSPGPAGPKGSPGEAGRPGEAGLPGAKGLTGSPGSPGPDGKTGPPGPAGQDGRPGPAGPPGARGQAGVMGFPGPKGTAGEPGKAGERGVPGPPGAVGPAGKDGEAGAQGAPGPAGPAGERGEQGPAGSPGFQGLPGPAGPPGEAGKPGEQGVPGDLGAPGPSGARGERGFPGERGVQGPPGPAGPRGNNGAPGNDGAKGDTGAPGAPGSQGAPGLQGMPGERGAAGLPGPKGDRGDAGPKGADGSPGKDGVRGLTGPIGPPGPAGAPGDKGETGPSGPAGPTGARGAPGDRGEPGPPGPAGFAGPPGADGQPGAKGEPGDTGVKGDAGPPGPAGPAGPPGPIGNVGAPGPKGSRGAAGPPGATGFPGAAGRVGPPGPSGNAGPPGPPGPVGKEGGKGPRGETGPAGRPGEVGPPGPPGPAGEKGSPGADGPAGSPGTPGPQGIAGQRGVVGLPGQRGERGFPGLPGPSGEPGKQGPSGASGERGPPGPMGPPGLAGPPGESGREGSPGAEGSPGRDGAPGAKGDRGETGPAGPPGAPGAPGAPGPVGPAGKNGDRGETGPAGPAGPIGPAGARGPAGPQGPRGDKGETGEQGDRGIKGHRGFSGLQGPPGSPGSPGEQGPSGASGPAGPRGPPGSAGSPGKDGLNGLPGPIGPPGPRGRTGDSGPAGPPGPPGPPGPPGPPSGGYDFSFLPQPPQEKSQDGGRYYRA
T1 sequence (P02466 86-1125, chain 2 of 2): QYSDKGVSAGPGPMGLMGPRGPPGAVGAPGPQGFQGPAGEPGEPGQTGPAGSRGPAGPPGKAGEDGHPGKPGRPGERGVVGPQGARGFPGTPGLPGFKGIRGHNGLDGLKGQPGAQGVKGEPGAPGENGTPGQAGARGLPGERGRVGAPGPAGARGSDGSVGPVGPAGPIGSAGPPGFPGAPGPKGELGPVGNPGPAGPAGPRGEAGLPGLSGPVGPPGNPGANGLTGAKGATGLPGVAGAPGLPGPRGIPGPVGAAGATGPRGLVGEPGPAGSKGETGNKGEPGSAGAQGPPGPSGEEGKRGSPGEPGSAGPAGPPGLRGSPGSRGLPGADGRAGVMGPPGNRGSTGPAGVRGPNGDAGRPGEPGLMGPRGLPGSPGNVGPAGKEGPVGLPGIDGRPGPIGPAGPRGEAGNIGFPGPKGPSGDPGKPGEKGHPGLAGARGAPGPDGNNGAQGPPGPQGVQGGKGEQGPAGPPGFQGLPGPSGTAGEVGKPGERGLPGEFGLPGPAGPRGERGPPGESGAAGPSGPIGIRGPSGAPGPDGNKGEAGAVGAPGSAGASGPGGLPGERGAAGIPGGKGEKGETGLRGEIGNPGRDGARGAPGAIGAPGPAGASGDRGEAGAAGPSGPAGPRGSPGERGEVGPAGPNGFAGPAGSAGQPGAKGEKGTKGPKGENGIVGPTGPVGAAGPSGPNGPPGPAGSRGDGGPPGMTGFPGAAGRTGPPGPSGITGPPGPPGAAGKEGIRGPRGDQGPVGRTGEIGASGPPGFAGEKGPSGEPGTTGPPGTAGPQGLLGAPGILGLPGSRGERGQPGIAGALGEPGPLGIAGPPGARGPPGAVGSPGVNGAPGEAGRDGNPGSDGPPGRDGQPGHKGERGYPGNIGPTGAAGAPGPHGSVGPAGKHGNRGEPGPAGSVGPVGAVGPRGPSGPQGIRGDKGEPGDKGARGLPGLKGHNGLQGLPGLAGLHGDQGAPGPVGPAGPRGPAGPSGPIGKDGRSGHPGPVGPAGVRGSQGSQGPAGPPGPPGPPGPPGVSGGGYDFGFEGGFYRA

Kd: 200 nM
Molecule: Pma_f1 αI domain (sea lamprey integrin α subunit fragment Pma_f1), GST-fusion protein (domain or fragment)

Kd: 195 nM
Molecule: Pma_f3 αI domain (sea lamprey integrin α subunit fragment Pma_f3), GST-fusion protein (domain or fragment)

Kd (both partners purified): 375 ± 120 nM
B1: Pma_f2 αI domain (sea lamprey integrin α subunit fragment Pma_f2), GST-fusion protein (domain or fragment, sea lamprey (Petromyzon marinus))
chain: ADFQVTSTLTPAAQRCGLFMDIVIVLDGSNSIYPWQEVQNFVINIVKKFHIGPGQSRNGGGSTRFGVRTIHWHLGIARWACEGVQDVENIYSRPFVRTASALCQSLQVVRSEAFSPLFGAREGASKVMIVVTDGESHDSEDLTEAIAACERDNITRYAIAVLGYYKRKNIDPSNFISELKAISSEPEEKHFINVADEAALNDIVGTLGERIFSLEGTV
notes: also called Pma αI domains; source: E. coli BL21 tuner (gene synthesized, in pGEX-2T), recombinant GST-fusion protein, "sufficiently pure"
